According to patent US20230303685A1 (ELECTRA THERAPEUTICS, published 2023):
Blank lines part the entries; values can stand above or below the binder they belong to.

Assays:
[1] = molecular target: T1, Human SIRPγ conjugated to an Fc region (human); assay: BLI blocking; 200 nM antibody pre-incubated with 20 nM SIRPγ-Fc, binding to immobilised CD47-His (competitor), % of response of SIRPγ-Fc alone
T1 construct: also called SIRPγ-Fc; SIRP-Fc; not shown: Fc region

[2] = molecular target: T2, human SIRPα V1 extracellular domain, monomeric (human, UniProt P78324 31-373); assay: SPR (Biacore); antibody captured by anti-IgG on chip, monomeric SIRPα extracellular domain as analyte, 1:1 model
T2 construct: also called hSIRPα V1

[3] = molecular target: T3, cynomolgus monkey SIRPα extracellular domain, monomeric (cynomolgus monkey, UniProt A0A2K5VYQ9 31-372); assay: as above
T3 construct: extracellular domain; also called Cyno SIRPα

[4] = molecular target: T2, human SIRPα V1 extracellular domain, …; assay: ELISA, extracellular domain coated at 2 µg/mL, purified antibody titrated, anti-rat or anti-mouse IgG, chemiluminescence
Experimental: (§1) Select SIRP antibodies were purified by Protein G from hybridoma supernatants and analyzed in a titration via ELISA. Briefly, 2 μg/mL of extracellular domain of each of the SIRPs was coated onto high protein-binding plates and blocked. Purified antibodies were added in a titration to the coated plates. The antibodies were detected by an anti-rat IgG or an anti-mouse IgG antibody and a chemiluminescent substrate.

Human SIRPγ = molecular target: T4, Human SIRPγ; assay: as above
T4 construct: also called human SIRPγ extracellular domain, plate-coated
T4 chain: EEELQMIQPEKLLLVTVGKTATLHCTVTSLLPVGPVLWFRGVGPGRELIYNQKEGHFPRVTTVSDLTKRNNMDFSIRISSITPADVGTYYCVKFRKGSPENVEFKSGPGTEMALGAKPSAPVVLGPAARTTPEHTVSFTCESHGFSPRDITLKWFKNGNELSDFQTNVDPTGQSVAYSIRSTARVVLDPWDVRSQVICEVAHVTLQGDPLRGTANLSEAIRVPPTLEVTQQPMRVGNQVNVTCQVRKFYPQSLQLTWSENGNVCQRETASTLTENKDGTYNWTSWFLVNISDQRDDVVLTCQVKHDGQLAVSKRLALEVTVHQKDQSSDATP
Experimental: as §1

Cynomolgus Monkey SIRPβ1 = molecular target: T5, Cynomolgus Monkey SIRPβ1 (Macaca fascicularis); assay: as above
T5 construct: extracellular domain; also called cyno SIRPβ1 extracellular domain, plate-coated
Experimental: as §1

[5] = molecular target: T3, cynomolgus monkey SIRPα extracellular …; assay: as above
Experimental: as §1

[6] = molecular target: T6, human SIRPα V1-His monomer (human, UniProt P78324 31-373, limits assumed); assay: BLI (Octet); antibody on anti-mouse IgG capture tip, SIRP-His monomer at 100, 33.3, 11.1 nM, 1:1 fit, mean KD
T6 construct: 'SIRP-His monomer protein' of the Octet assay; also called SIRP-His; not shown: His tag
How it was run: (§2)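 Rat/mouse-Fc antibodies captured on anti-mouse IgG tips; human-Fc antibodies cleaved with gingipain K to monomeric F(ab′), biotinylated, loaded on streptavidin tips. SIRP-His association then wash-buffer dissociation; 1:1 model fitted per concentration, KD as kdis/kon averaged over concentrations.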

human SIRPβ1-His monomer [7] = molecular target: T7, human SIRPβ1-His monomer (human, UniProt O00241 30-371); assay: as above
T7 construct: 'SIRP-His monomer protein' of the Octet assay; also called SIRP-His; not shown: His tag
T7 sequence (O00241 30-371): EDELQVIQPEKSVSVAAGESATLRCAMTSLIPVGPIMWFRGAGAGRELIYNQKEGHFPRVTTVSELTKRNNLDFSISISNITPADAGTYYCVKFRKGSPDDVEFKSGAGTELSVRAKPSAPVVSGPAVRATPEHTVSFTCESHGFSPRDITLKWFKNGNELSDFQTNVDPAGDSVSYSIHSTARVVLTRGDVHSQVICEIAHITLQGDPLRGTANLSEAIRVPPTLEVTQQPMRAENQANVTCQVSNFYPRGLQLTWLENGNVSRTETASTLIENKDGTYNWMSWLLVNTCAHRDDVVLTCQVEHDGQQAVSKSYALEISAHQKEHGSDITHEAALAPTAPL
How it was run: as §2

human SIRPγ-His monomer [8] = molecular target: T8, human SIRPγ-His monomer (human); assay: as above
T8 construct: 'SIRP-His monomer protein' of the Octet assay; also called SIRP-His; not shown: His tag
How it was run: as §2

[9] = molecular target: T6, human SIRPα V1-His monomer; assay: BLI (Octet); biotinylated monomeric F(ab') on streptavidin tip, SIRP-His monomer at 100, 33.3, 11.1 nM, 1:1 fit, mean KD
Experimental: (§3) Select SIRP antibodies were tested for their affinities to human SIRPα, SIRPβ1, and SIRPγ using a biolayer interferometry (BLI) Octet system (Pall ForteBio). Each SIRP antibody with rat or mouse Fc was immobilized on a biosensor tip by an anti-mouse IgG capture (AMC). Antibodies with human Fc were digested with gingipain K enzyme to yield monomeric F(ab′), biotinylated, then coated onto streptavidin biosensors. […] The biosensors were then exposed to wash buffer to measure off-rate kinetics. The resulting kinetic data were analyzed and fitted using a 1:1 binding model with kₒₙ and kdis fitted separately at each SIRP-His protein concentration. KD affinities were calculated as kdis to kₒₙ ratio at each concentration of SIRP-His and averaged.

human SIRPβ1-His monomer [10] = molecular target: T7, human SIRPβ1-His monomer; assay: as above
Experimental: as §3

human SIRPγ-His monomer [11] = molecular target: T8, human SIRPγ-His monomer; assay: as above
Experimental: as §3

T1 sequence (Q9P1W8 whole entry): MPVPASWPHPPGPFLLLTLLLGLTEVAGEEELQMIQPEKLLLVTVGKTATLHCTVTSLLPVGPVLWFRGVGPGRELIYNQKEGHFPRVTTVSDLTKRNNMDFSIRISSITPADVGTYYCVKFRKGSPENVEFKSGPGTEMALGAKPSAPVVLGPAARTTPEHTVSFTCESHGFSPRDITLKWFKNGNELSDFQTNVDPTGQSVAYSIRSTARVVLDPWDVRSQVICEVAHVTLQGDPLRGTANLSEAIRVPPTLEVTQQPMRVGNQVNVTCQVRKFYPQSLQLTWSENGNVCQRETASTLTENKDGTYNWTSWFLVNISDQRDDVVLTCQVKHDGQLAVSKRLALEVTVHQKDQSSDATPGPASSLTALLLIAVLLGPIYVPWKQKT

SIRPγ-CD47 Response (%) [1]: 110% | Kd [2]: 579 nM | Kd [3]: 581 nM | EC50 (read off the curve) [4]: ~0.1 µg/mL | EC50 (read off the curve) (Human SIRPγ): ~0.2 µg/mL | EC50 (read off the curve) (Cynomolgus Monkey SIRPβ1): ~0.2 µg/mL | EC50 (read off the curve) [5]: ~0.1 µg/mL | Kd [6]: 37.1 nM | Kd (human SIRPβ1-His monomer [7]): 3.52 µM | Kd (human SIRPγ-His monomer [8]): 973 nM
B1: Antibody 1 (antibody, V domains shown)
VH: QVQLQESGPGLVKPSGTLSLTCAVSGGSISSSNWWSWVRQPPGKGLEWIGEIYHSGSTNYNPSLKSRVTISVDKSKNQFSLKLSSVTAADTAVYYCARRGIWFGVGPWGQGTLVTVSS
VL: DIVMTQSPLSLPVTPGEPASISCRSSQSLLHGNGFNYLDWYLQKPGQSPQLLIYLGSNRASGVPDRFTGSGSGTDFTLKISRVEAEDVGVYYCMQGLQTPRTFGQGTKVEIK
notes: Human variable region, rat IgG2b Fc; from hybridoma

Kd [9]: 14.9 nM | Kd (human SIRPβ1-His monomer [10]): 555 nM | Kd (human SIRPγ-His monomer [11]): 1340 nM
B2: Antibody 28, monomeric F(ab') (gingipain K digest, biotinylated) (Fab, V domains shown)
VH: B1 VH
VL: B1 VL
modifications: biotinylated (site not stated)
